According to the supplement of paper PMC7877785:
± gives the uncertainty stated by the source.

Assay: self-splicing fitness, log relative to wild type (ln ratio); higher = more splicing; Tetrahymena group I intron in knt gene, E. coli kanamycin selection, DiMSum; sequences stand for … in CUCUCU…GGAGGGAAAAGUUAUCAGGCAUGCACCUGGUAGCUAGUCUUUAAACCAAUAGAUUGCAUCGGUUUAAAAGGCAAGACCGUCAAAUUGCGGGAAAGGGGUCAACAGCCGUUCAGUACCAAGUCUCAGGGGAAACUUUGAGAUGGCCUUGCAAAGGGUAUGGUAAUAAGCUGACGGACAUGGUCCUAACCACGCAGCCAAGUCCUAAGUCAACAGAUCUUCUGUUGAUAUGGAUGCAGUUCACAGACUAAAUGUCGGUCGGGGAAGAUGUAUUCUUCUCAUAAGAUAUAGUCGGACCUCUCCUUAAUGGGAGCUAGCGGAUGAAGUGAUGCAACACUGGAGCCGCUGGGAACUAAUUUGUAUGCGAAAGUAUAUUGAUUAGUUUUGGAGUACUCGUGGUCG
In short: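 Six replicate transformations of E. coli BL21(DE3) with a pET-22b(+) library were grown overnight at 37°C or 30°C. The library randomised all eight P1ex-region intron nucleotides, the intron lying in the knt kanamycin-resistance gene, and plates were LB agar with or without 25 μg/mL kanamycin plus 100 μg/mL carbenicillin, 50 μM IPTG and 0.2% rhamnose. Pooled colonies were amplicon-sequenced on an Illumina HiSeq 2500, and fitness is the DiMSum error-weighted combination of wild-type-normalised replicate fold changes, kanamycin versus none.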

| Sequence | self-splicing fitness (ln) (30 °C) | self-splicing fitness (ln) (37 °C) |
| --- | --- | --- |
| UACCAGCAAUAUUACGGCCC | -1.19 ± 0.14 | -0.219 ± 0.26 |
| UACCAGCAAUAUUACGGGGG | -2.5 ± 0.14 | -1.77 ± 0.13 |
| UACCAGCAAUAUUACGGUCC | -1.55 ± 0.11 | -0.0163 ± 0.11 |
| UACCAGCAAUAUUACGUAGC | -2.38 ± 0.11 | -1.72 ± 0.14 |
| UACCAGCAAUAUUACGUAUC | -2.55 ± 0.15 | -0.118 ± 0.12 |
| UACCAGCAAUAUUACGUCCU | -1.79 ± 0.1 | -1.34 ± 0.14 |
| UACCAGCAAUAUUACGUCGA | -0.651 ± 0.073 | -0.0658 ± 0.085 |
| UACCAGCAAUAUUACGUCGG | -2.64 ± 0.12 | -1.91 ± 0.14 |
| UACCAGCAAUAUUACGUGGC | -4.31 ± 0.22 | -3.66 ± 0.2 |
| UACCAGCAAUAUUACGUGUC | -2.04 ± 0.1 | -2.23 ± 0.15 |
| UACCAGCAAUAUUACGUGUU | -3.72 ± 0.11 | -1.38 ± 0.078 |
| UACCAGCAAUAUUACGUUCC | -2.79 ± 0.19 | -1.77 ± 0.22 |
| UACCAGCAAUAUUACGUUUA | -0.529 ± 0.052 | -0.264 ± 0.064 |
| UACGAGCAAUAUUACGACCU | -2.35 ± 0.27 | -1.82 ± 0.5 |
| UACGAGCAAUAUUACGAGUG | -1.86 ± 0.07 | -1.74 ± 0.1 |
| UACGAGCAAUAUUACGCACU | -2.42 ± 0.29 | -2.13 ± 0.28 |
| UACGAGCAAUAUUACGCGUG | -4.43 ± 0.3 | -2.7 ± 0.21 |
| UACGAGCAAUAUUACGCUAG |  | -1.7 ± 0.46 |
| UACGAGCAAUAUUACGGAAU | -2.71 ± 0.27 | -2.76 ± 0.34 |
| UACGAGCAAUAUUACGGCCU | -3.35 ± 0.18 | -3.77 ± 0.46 |
| UACGAGCAAUAUUACGGCGC | -2.53 ± 0.29 | -2.4 ± 0.46 |
| UACGAGCAAUAUUACGGGGA | -2.87 ± 0.29 | -1.69 ± 0.19 |
| UACGAGCAAUAUUACGGGGC |  | -3.34 ± 0.3 |
| UACGAGCAAUAUUACGGUAC | -3.89 ± 0.3 | -2.76 ± 0.34 |
| UACGAGCAAUAUUACGGUCU | -4.06 ± 0.34 | -3.1 ± 0.4 |

| Sequence | self-splicing fitness (ln) (30 °C) | self-splicing fitness (ln) (37 °C) |
| --- | --- | --- |
| UACGAGCAAUAUUACGGUUC | -4.18 ± 0.19 | -2.5 ± 0.15 |
| UACGAGCAAUAUUACGUACG | -3.76 ± 0.23 | -2.34 ± 0.18 |
| UACGAGCAAUAUUACGUAGG | -3.41 ± 0.31 | -2.57 ± 0.28 |
| UACGAGCAAUAUUACGUAUA | -2.7 ± 0.2 | -0.839 ± 0.14 |
| UACGAGCAAUAUUACGUCGU | -4.08 ± 0.33 |  |
| UACGAGCAAUAUUACGUGAC | -4.06 ± 0.33 | -1.76 ± 0.27 |
| UACGAGCAAUAUUACGUGUU | -3.63 ± 0.19 | -3.63 ± 0.29 |
| UACGAGCAAUAUUACGUUUA | -2.32 ± 0.12 | -1.79 ± 0.12 |
| UACUAGCAAUAUUACGAACA | -0.0493 ± 0.19 | -0.55 ± 0.15 |
| UACUAGCAAUAUUACGACAC | -2.53 ± 0.2 | -0.604 ± 0.15 |
| UACUAGCAAUAUUACGAGAC |  | -1.56 ± 0.25 |
| UACUAGCAAUAUUACGAGGG | -2.3 ± 0.13 | -2.52 ± 0.17 |
| UACUAGCAAUAUUACGAUAU | -3.18 ± 0.17 | -2.36 ± 0.17 |
| UACUAGCAAUAUUACGAUGA | -0.469 ± 0.13 | -0.321 ± 0.11 |
| UACUAGCAAUAUUACGAUGG | -0.657 ± 0.12 | -0.406 ± 0.2 |
| UACUAGCAAUAUUACGCAAU | -3.82 ± 0.23 | -1.63 ± 0.16 |
| UACUAGCAAUAUUACGCAGU | -3.26 ± 0.35 | -3.09 ± 0.34 |
| UACUAGCAAUAUUACGCCCA | -0.901 ± 0.21 | 0.802 ± 0.33 |
| UACUAGCAAUAUUACGCCCC | -2.19 ± 0.41 | -1.18 ± 0.43 |
| UACUAGCAAUAUUACGGAGU | -3.43 ± 0.24 | -3.25 ± 0.29 |
| UACUAGCAAUAUUACGGCAU | -1.36 ± 0.095 | -1.28 ± 0.099 |
| UACUAGCAAUAUUACGGCGG | -0.694 ± 0.11 | 0.0905 ± 0.13 |
| UACUAGCAAUAUUACGGCGU | -2.16 ± 0.11 | -0.707 ± 0.12 |
| UACUAGCAAUAUUACGGCUA | -1.58 ± 0.12 | -0.671 ± 0.099 |
| UACUAGCAAUAUUACGGGAU | -3.17 ± 0.17 | -1.43 ± 0.13 |

| Sequence | self-splicing fitness (ln) (30 °C) | self-splicing fitness (ln) (37 °C) |
| --- | --- | --- |
| UACUAGCAAUAUUACGGGUC | -2.68 ± 0.21 | -2.29 ± 0.26 |
| UACUAGCAAUAUUACGGGUG | -0.974 ± 0.077 | -0.232 ± 0.075 |
| UACUAGCAAUAUUACGGGUU | -2.34 ± 0.18 | -1.78 ± 0.16 |
| UACUAGCAAUAUUACGGUAC | -3.01 ± 0.18 | -2.53 ± 0.23 |
| UACUAGCAAUAUUACGGUGG | -2.1 ± 0.09 | -1 ± 0.098 |
| UACUAGCAAUAUUACGUGCA | -1.01 ± 0.073 | 0.166 ± 0.09 |
| UACUAGCAAUAUUACGUGCC | -1.33 ± 0.14 | -2.6 ± 0.26 |
| UACUAGCAAUAUUACGUGCU | -3.85 ± 0.32 | -3.06 ± 0.27 |
| UACUAGCAAUAUUACGUUCG | -0.992 ± 0.077 | -0.484 ± 0.094 |
| UACUAGCAAUAUUACGUUCU | -2.47 ± 0.25 | -1.03 ± 0.19 |
| UACUAGCAAUAUUACGUUUC | -4.15 ± 0.33 | -2.53 ± 0.23 |
| UACUAGCAAUAUUACGUUUG | -3.28 ± 0.18 | -2.21 ± 0.29 |
| UAGAAGCAAUAUUACGAAGG | -2.9 ± 0.17 | -1.82 ± 0.39 |
| UAGAAGCAAUAUUACGACGA | -0.144 ± 0.1 | -0.0918 ± 0.1 |
| UAGAAGCAAUAUUACGACUG | -0.418 ± 0.083 | -0.0265 ± 0.1 |
| UAGAAGCAAUAUUACGCCUC | -2.88 ± 0.5 |  |
| UAGAAGCAAUAUUACGCGGG | -2.4 ± 0.14 | -1.1 ± 0.13 |
| UAGAAGCAAUAUUACGCGUU | -2.89 ± 0.15 | -1.41 ± 0.13 |
| UAGAAGCAAUAUUACGGGAA | -1.96 ± 0.25 | -2.3 ± 0.29 |
| UAGAAGCAAUAUUACGGGAU | -4.15 ± 0.23 | -2.36 ± 0.18 |
| UAGAAGCAAUAUUACGGGCC |  | -1.9 ± 0.31 |
| UAGAAGCAAUAUUACGGGUG | -0.989 ± 0.057 | -0.365 ± 0.078 |
| UAGAAGCAAUAUUACGGUCU | -0.542 ± 0.11 | 0.318 ± 0.11 |
| UAGAAGCAAUAUUACGUAAU | -3.43 ± 0.22 | -1.39 ± 0.18 |
| UAGAAGCAAUAUUACGUAGA | -2.4 ± 0.095 | -1.79 ± 0.11 |

| Sequence | self-splicing fitness (ln) (30 °C) | self-splicing fitness (ln) (37 °C) |
| --- | --- | --- |
| UAGAAGCAAUAUUACGUCUC | -1.21 ± 0.11 | -0.794 ± 0.1 |
| UAGAAGCAAUAUUACGUGCU | -2.8 ± 0.21 | -2.42 ± 0.24 |
| UAGAAGCAAUAUUACGUUAC | -3.73 ± 0.32 | -2.79 ± 0.27 |
| UAGAAGCAAUAUUACGUUGC | -4.3 ± 0.27 | -2.82 ± 0.24 |
| UAGCAGCAAUAUUACGAAAA | -2.56 ± 0.25 | -1.27 ± 0.2 |
| UAGCAGCAAUAUUACGAGAU | -3.24 ± 0.2 | -3.18 ± 0.28 |
| UAGCAGCAAUAUUACGAUUC | -3.06 ± 0.14 | -2.94 ± 0.15 |
| UAGCAGCAAUAUUACGCAAA | -1.89 ± 0.18 | -1.76 ± 0.17 |
| UAGCAGCAAUAUUACGCAAG | -3.04 ± 0.23 | -1.76 ± 0.21 |
| UAGCAGCAAUAUUACGCACU | -0.419 ± 0.086 | 0.238 ± 0.1 |
| UAGCAGCAAUAUUACGCAUC | -4.15 ± 0.47 | -3.39 ± 0.26 |
| UAGCAGCAAUAUUACGCCAC | -3.82 ± 0.39 | -1.45 ± 0.3 |
| UAGCAGCAAUAUUACGCCCU | -0.738 ± 0.087 | -0.863 ± 0.11 |
| UAGCAGCAAUAUUACGCCUA | -0.551 ± 0.13 | 0.446 ± 0.15 |
| UAGCAGCAAUAUUACGCGAU | -2.94 ± 0.2 | -3.07 ± 0.35 |
| UAGCAGCAAUAUUACGCGCA | -0.588 ± 0.11 | -0.487 ± 0.095 |
| UAGCAGCAAUAUUACGCGGU | -4.14 ± 0.22 | -2.49 ± 0.17 |
| UAGCAGCAAUAUUACGCGUG | -1.5 ± 0.076 | -0.257 ± 0.1 |
| UAGCAGCAAUAUUACGCGUU | -2.72 ± 0.1 | -1.24 ± 0.11 |
| UAGCAGCAAUAUUACGGAUG | -1.19 ± 0.073 | -0.912 ± 0.079 |
| UAGCAGCAAUAUUACGGCUA | -2.89 ± 0.39 | -1.33 ± 0.28 |
| UAGCAGCAAUAUUACGGGCU | -3.39 ± 0.15 | -1.08 ± 0.12 |
